Experimental data reported in the supplement of paper PMC12764529.
± gives the half width of the 95% confidence interval.

Columns and labels:
[1] = folding stability dG unfold (combined trypsin and chymotrypsin); higher = more stable
In short: (§1)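 Digests were run with trypsin and chymotrypsin at 11 concentrations in threefold dilutions, plus a no-protease condition, on designed mini-proteins in a PA-tagged cDNA display construct. The mini-proteins were under 80 residues, had no cysteine, and were kept only when AlphaFold2 dimer inter-PAE was above 15. After sequencing, Bayesian fitting of the counts gave K50, from which unfolding free energy was derived against a sequence-predicted unfolded-state K50 and a shared folded-state K50, per protease or combined.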

[2] = folding stability dG unfold from chymotrypsin proteolysis; higher = more stable
In short: as §1

For “SAGGSAGGSDKIRKALKELGYPYEIDNIDVNVTKNGNPEIEIKYSPGMPPQDQKRIKRAVIDLSAGGSAGGS [r12_352_TrROS]”, the “folding stability dG unfold” value [1] was -0.469 ± 0.15 kcal/mol and the “folding stability dG unfold” value [2] was -0.14 ± 0.065 kcal/mol.
In the case of “SAGGSAGGSDPTYVEVRTLAGPAGPTRVLIRPSSGEWLEAEFPVDRPVVFFVPADVEVEVLPDSAGGSAGGS [r12_517_TrMRF]”, the “folding stability dG unfold” value [1] is reported as 0.0902 ± 0.054 kcal/mol and the “folding stability dG unfold” value [2] is reported as 0.498 ± 0.048 kcal/mol.
With “SAGGSAGGSEEFVILEIPFERKFVVKDPEGGEEREFEFRPVIPLVLPPELAEKLLKSPYLQKKSAGGSAGGS [r12_1015_TrMRF]” the “folding stability dG unfold” value [1] was 0.416 ± 0.22 kcal/mol and the “folding stability dG unfold” value [2] was 0.721 ± 0.26 kcal/mol.
With “SAGGSAGGSEKLEIVKAFVFENEVILIVKKEKEYYVLKLKFKDGKIESLEFIGPVPENDPSLGSAGGSAGGS [r12_154_TrMRF]” the “folding stability dG unfold” value [1] was 5.27 ± 0.48 kcal/mol and the “folding stability dG unfold” value [2] was 4.92 ± 0.16 kcal/mol.
For “SAGGSAGGSELITLTEKASLAVGELNLPSPEELAKKKYPDVKPKNITVSTKPGEGLVTVTVDGKSAGGSAGG [r6_81_JUSTAS]”, the “folding stability dG unfold” value [1] was -0.222 ± 0.19 kcal/mol and the “folding stability dG unfold” value [2] was 0.207 ± 0.091 kcal/mol.
With “SAGGSAGGSENAALENPFANRPPIPPVRAVLYDPDGTPRVLEGRSLEEIRRYAEERGVVVDISSAGGSAGGS [r12_244_TrMRF]” the “folding stability dG unfold” value [1] was -0.165 ± 0.075 kcal/mol and the “folding stability dG unfold” value [2] was 0.397 ± 0.072 kcal/mol.
With “SAGGSAGGSEPRLILTTFPLPEPGEPVLRLLVIGEDRILAVRVVGEKPELRELDRLDDLLAEQSAGGSAGGS [r12_299_TrMRF]” the “folding stability dG unfold” value [1] was under -1 kcal/mol and the “folding stability dG unfold” value [2] was -0.433 ± 0.46 kcal/mol.
With “SAGGSAGGSFELPVPPNTPVDIEATVTRPDGTPATLVDAEPLGDGTFRVTVRYPDGSTETIEVSAGGSAGGS [r12_31_JUSTAS]” the “folding stability dG unfold” value [1] was 0.464 ± 0.061 kcal/mol and the “folding stability dG unfold” value [2] was 0.959 ± 0.038 kcal/mol.
For “SAGGSAGGSGAEITTLPEGRALLRLYDEGGVLVEEAEVEVELDAVLVFDRDNPRIGVFGPDELSAGGSAGGS [r12_1002_TrMRF]”, the “folding stability dG unfold” value [1] was -0.203 ± 0.14 kcal/mol and the “folding stability dG unfold” value [2] was 0.0264 ± 0.13 kcal/mol.
With “SAGGSAGGSGGTIKLPLYPPEGKEYKGTIPKEKLEAAIAKGEPIKVTLKTKGKEVKEYTIPIKSAGGSAGGS [r12_991_JUSTAS]” the “folding stability dG unfold” value [1] was -0.983 ± 0.48 kcal/mol and the “folding stability dG unfold” value [2] was -0.582 ± 0.44 kcal/mol.
With “SAGGSAGGSGHHHMTTRTSTSTDPATGSTTVTTTRTTTDGGTVTTTTTLPPPAATTTTSTTTSSAGGSAGGS [r12_1029_JUSTAS]” the “folding stability dG unfold” value [1] was -0.165 ± 0.11 kcal/mol and the “folding stability dG unfold” value [2] was 0.349 ± 0.044 kcal/mol.
With “SAGGSAGGSGMPRKIASYEEKEEEDGKKTVKVRFPDDGKEITLSPEKAGKITPDSTVPLEELLSAGGSAGGS [r20_3_JUSTAS]” the “folding stability dG unfold” value [1] was -0.168 ± 0.43 kcal/mol and the “folding stability dG unfold” value [2] was 0.404 ± 0.049 kcal/mol.
In the case of “SAGGSAGGSGMPTRNVPITTPDGKVVTVVERPPERAEIIFPDGSRATIVDPARGYEEITITPESAGGSAGGS [r12_491_JUSTAS]”, the “folding stability dG unfold” value [1] is reported as 0.542 ± 0.059 kcal/mol and the “folding stability dG unfold” value [2] is reported as 0.945 ± 0.027 kcal/mol.
For “SAGGSAGGSGMSSTSTTTVEIEKDPSTGKVLKKTVTSPTTTLAPGGEWTTTVSTSTEEISPDLSAGGSAGGS [r12_629_JUSTAS]”, the “folding stability dG unfold” value [1] was -0.237 ± 0.4 kcal/mol and the “folding stability dG unfold” value [2] was -0.101 ± 0.24 kcal/mol.
With “SAGGSAGGSIEINPNGNFKIRFRGGNRPQTHTIPIKPGETLDTIKDTIRKHMGPNFPEVEIERSAGGSAGGS [r12_300_TrROS]” the “folding stability dG unfold” value [1] was -0.152 ± 0.13 kcal/mol and the “folding stability dG unfold” value [2] was 0.0855 ± 0.11 kcal/mol.
In the case of “SAGGSAGGSKPIPIKIKARNKDDGKKREEDIQIPPEALKNGKFDKEQIKKELRKLGPRVEIEISAGGSAGGS [r20_221_TrROS]”, the “folding stability dG unfold” value [1] is reported as under -1 kcal/mol and the “folding stability dG unfold” value [2] is reported as -0.216 ± 0.18 kcal/mol.
With “SAGGSAGGSMEKRKLEIEIHLPASEATEEEMEELAEEYAKKNPEADEVTFKFTVEESDKESLESAGGSAGGS [r20_86_JUSTAS]” the “folding stability dG unfold” value [1] was -0.605 ± 0.33 kcal/mol and the “folding stability dG unfold” value [2] was -0.141 ± 0.25 kcal/mol.
For “SAGGSAGGSMKTVKPTELLASLSPEEEVILTTPTSATRLTVEEVKNVPEDTPVDVEVVPRNAASAGGSAGGS [r12_501_JUSTAS]”, the “folding stability dG unfold” value [1] was 0.244 ± 0.051 kcal/mol and the “folding stability dG unfold” value [2] was 0.685 ± 0.015 kcal/mol.
For “SAGGSAGGSMNVKKVESEKDTGDGSTLTTNTVELPSNIIIVEPVLTPPSGNPQTTTKILPKGLSAGGSAGGS [r12_407_JUSTAS]”, the “folding stability dG unfold” value [1] was -0.5 ± 0.18 kcal/mol and the “folding stability dG unfold” value [2] was -0.157 ± 0.12 kcal/mol.
For “SAGGSAGGSMSTVSTSTTYFPDKKVTTTTTVTPTPDGTTATTPSVTVTPLPPPNPPPAPFNRLSAGGSAGGS [r20_30_JUSTAS]”, the “folding stability dG unfold” value [1] was -0.351 ± 0.36 kcal/mol and the “folding stability dG unfold” value [2] was -0.125 ± 0.28 kcal/mol.
For “SAGGSAGGSNWIEKAINEAMKQHPPGQERKVPIEIYNPNNNKPIGKIPIRIRMDKDGPMEIEISAGGSAGGS [r20_151_TrROS]”, the “folding stability dG unfold” value [1] was 0.529 ± 0.074 kcal/mol and the “folding stability dG unfold” value [2] was 0.864 ± 0.049 kcal/mol.
